For assay [1], the target named is T1, recombinant hCTLA-4-mFc (human CTLA-4 extracellular domain with a C-terminal Fc portion of mouse IgG2a) (human).
T1 construct: also called dimeric CTLA-4 protein
The experiment in a line: competition ELISA, 200 pM hCTLA-4-mFc on plate-coated hB7-1-hIgG1-6His. (In general: In an ELISA, binding on a coated surface is turned into a signal by an enzyme label.)

For assay [2], the target named is T1, recombinant hCTLA-4-mFc (human CTLA-4 …). As to the kind of experiment: competition ELISA, 400 pM hCTLA-4-mFc on plate-coated hB7-2-hIgG1-6His.
Assay [3] addresses T2, human CTLA-4 (amino acids M1-N223) on stably transfected VI-fibroblast cells (human, UniProt P16410 36-223).
T2 construct: also called VI-fibroblast/hCTLA-4
The experiment in a line: ECL cell binding, VI-fibroblast/hCTLA-4 cells.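 Further: antibodies bound to the cells on carbon electrode plates, detected via SULFO-TAG anti-IgG secondary (1 h, RT), electrochemiluminescence read as RLU over a concentration range.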

For assay [4], the target named is T3, soluble human CTLA-4 expressed with a C-terminal myc-myc-polyhistidine tag (human).
T3 construct: soluble protein; also called hCTLA-4.mmh; hCTLA4.mmh
As to the kind of experiment: SPR, mAb capture, 25 C. (In general: SPR reads the build-up and loss of mass on a sensor chip optically.)

Assay [5] deals with T4, soluble Macaca fascicularis CTLA-4 expressed with a C-terminal myc-myc-polyhistidine tag (Macaca fascicularis).
T4 construct: soluble protein; also called mf CTLA-4.mmh; mfCTLA4.mmh
T4 chain: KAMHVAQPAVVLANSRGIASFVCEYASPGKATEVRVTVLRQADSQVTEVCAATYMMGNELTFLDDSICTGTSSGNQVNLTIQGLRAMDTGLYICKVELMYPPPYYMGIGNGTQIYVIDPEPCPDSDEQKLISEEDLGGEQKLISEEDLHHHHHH
The experiment in a line: SPR, mAb capture, 25 C.

T3 sequence (chain, as listed by the source limits assumed): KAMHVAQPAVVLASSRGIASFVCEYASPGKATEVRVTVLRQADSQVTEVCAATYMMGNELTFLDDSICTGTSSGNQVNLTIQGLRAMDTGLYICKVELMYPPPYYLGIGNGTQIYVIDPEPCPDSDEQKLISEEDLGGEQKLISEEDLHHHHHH
T2 sequence (P16410 36-223 limits assumed): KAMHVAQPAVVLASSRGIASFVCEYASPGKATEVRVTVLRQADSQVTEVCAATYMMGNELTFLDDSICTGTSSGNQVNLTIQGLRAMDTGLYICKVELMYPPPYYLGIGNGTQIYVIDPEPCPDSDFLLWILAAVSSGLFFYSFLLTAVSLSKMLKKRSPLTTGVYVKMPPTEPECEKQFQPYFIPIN
T1 sequence (chain, as listed by the source limits assumed): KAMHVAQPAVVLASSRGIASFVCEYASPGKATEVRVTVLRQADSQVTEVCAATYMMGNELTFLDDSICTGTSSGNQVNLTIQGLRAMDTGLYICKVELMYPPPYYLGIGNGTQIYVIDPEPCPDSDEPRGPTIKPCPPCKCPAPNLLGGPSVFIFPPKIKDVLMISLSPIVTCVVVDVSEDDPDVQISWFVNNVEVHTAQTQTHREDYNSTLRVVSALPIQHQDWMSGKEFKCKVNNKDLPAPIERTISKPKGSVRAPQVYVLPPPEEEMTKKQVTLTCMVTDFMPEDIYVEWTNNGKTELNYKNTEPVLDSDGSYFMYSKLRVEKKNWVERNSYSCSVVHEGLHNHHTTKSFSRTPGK

B1: H1H19307P (antibody, human IgG1, V domains shown)
VH: EVQLVESGGGLVQPGGSLRLACAASGFTFSDYYMDWVRQVPGKGLEWVGRSRDKANSFTTEYVASVKGRFTISREDSKNSVYLQMNSLKTEDTAVYYCARTNYDFSLDVWGQGTTVTVSS
VL: DIQMTQSPSSLSASVGDRVTITCRASQDINNYLAWFQQKPGNAPKSLIYAASSLQSGVPSKFSGSGSGTDFTLTISSLQPEDFATYYCQQYSTYPITFGQGTRLEIK
B1: in assay [1], the “% Blockade” value came out at 99% and the IC50 was 0.18 nM. Besides, in assay [2], the “% Blockade” value is 99% and the IC50 was 0.29 nM. In addition, in assay [3], the half-maximal effective concentration (EC50) was 3.7 nM and the “ratio of RLU signal to parental VI-fibroblast at 0.4 nM Ab” value was 7 ratio. Further, in assay [4], binding was put at a Kd of 1.31 nM, the koff was 0.000284 s⁻¹, the kon turned out to be 217000 M⁻¹ s⁻¹ and the t1/2 worked out at 40.6 min. Besides, in assay [5], binding was put at a Kd of 1.4 nM, the koff was found to be 0.000292 s⁻¹, the kon is 209000 M⁻¹ s⁻¹ and the t1/2 is 39.5 min.

B2: H1H20375N (antibody, human IgG1, V domains shown)
VH: QLQLQESGPGLVKPSETLSFTCTVSGGSISSNYYYWGWVRQSPGKGLEWIGSIYHTGNAYDNPSLKSRVTISVDTSKNQFSLNLNSVTAADTAIYYCARHHSSSSWWYFDVWGRGTLVIVSS
VL: EIVLTQSPDTLSLSPGERATLSCRASQTVSNSHLAWYQQKPGQAPRLLIYGTSSRATGIPDRFSGSGSGTDFSLTIIRLEPDDFAVYFCQQHESSPPTFGQGAKLEIK
notes: here with human IgG1 Fc (H1H)
Take B2: the “% Blockade” value in assay [1] amounted to 13%. Moreover, the “% Blockade” value in assay [2] was found to be 29%. Besides, in assay [4], binding was characterised by a dissociation constant (Kd) of 66.5 nM, the off-rate (koff) stood at 0.00279 s⁻¹, the on-rate (kon) was found to be 41900 M⁻¹ s⁻¹ and the t1/2 turned out to be 4.1 min.

B3: H1H19264P (antibody, human IgG1, V domains shown)
VH: QVQLVQSGAEVKKPGASVKVSCKASDYTFTSYGISWVRQAPGQGLEWMGWISVYNGNINYAQKFKGRVTMTTDTSTSTAYMELRSLRSDDMAVYYCARVTQFGMDVWGQGTTVTVSS
VL: DIQMTQSPSSLSASVGDRVTITCRASQSISSNLNWYQQNPGKAPKLLIYTTSSLQGGVPSRFSGSGSGTDFTLTISSLQPEDFATYYCQQSFRTPFTFGPGTKVDIK
In the case of B3, the “% Blockade” value in assay [1] is 8%. Also, the “% Blockade” value in assay [2] came out at 43%. Besides, in assay [4], binding was characterised by a dissociation constant (Kd) of 12.1 nM, the koff amounted to 0.000731 s⁻¹, the kon is 60400 M⁻¹ s⁻¹ and the t1/2 was 15.8 min. In assay [5], the Kd worked out at 20.3 nM, the koff came to 0.000994 s⁻¹, the kon is 49000 M⁻¹ s⁻¹ and the t1/2 amounted to 11.6 min.

B4: H1H20386N (antibody, human IgG1, V domains shown)
VH: QVQLVESGGGVVQPGRSLRLSCAASGFTVNRYGIHWVRQAPGKGLEWVAVTWYDGRNKYFADSVKGRFSFSRDSSTNTLYLQMNSLRAEDTAVYYCARGGLFGYFDYWGQGTLVTVSS
VL: EIVLTQSPDTLSLSPGERATLSCRASQSVAGSYLAWYQQKPGQAPRLLIYGASSRATGIPDRFSGSGSGTDFTLTISRLEPEDFAVYYCQQYGTSPWTFGQGTKVEIT
notes: here with human IgG1 Fc (H1H)
On to B4, for which, in assay [1], the “% Blockade” value was determined as 94% and the IC50 amounted to 18 nM. For the same molecule, in assay [2], the “% Blockade” value was 96% and the half-inhibitory concentration (IC50) stood at 7.7 nM. Moreover, in assay [4], binding was put at a Kd of 10.5 nM, the off-rate (koff) was found to be 0.00194 s⁻¹, the kon is 185000 M⁻¹ s⁻¹ and the t1/2 is 6 min.

B5: H1H19305P (antibody, human IgG1, V domains shown)
VH: QVQLQESGPGLVKPSQTLSLTCTVSGGSITSGGYYWSWIRQHPGKGLEWIGYIFYSGITNYNPSLKSRVTISVDTSKNQFSLKLTSVTAADTAVYYCATYNSLRLYYGMDVWGQGTTVTVSS
VL: DVVMTQSPLSLPVILGQPASISCRSSQSLVYGDGNTYLNWFQQRPGQSPRRLIYKVSNRDSGVPDRFSGSGSGTDFTLKISRVEAEDVGVYYCMQSTHWPLTFGGGTKVEIK
With B5, in assay [1], the “% Blockade” value was 98% and the IC50 was found to be 0.19 nM. In addition, in assay [2], the “% Blockade” value was found to be 99% and the IC50 turned out to be 0.36 nM. For the same molecule, the EC50 in assay [3] is 0.84 nM. In assay [4], this molecule gave a Kd of 4.19 nM and a t1/2 of 9.5 min.

One may read the IC50 as the point on the concentration scale where inhibition reaches its midpoint. The EC50 is the concentration at which the effect is half-maximal. In general, Kd refers to the free concentration of one partner at which half of the binding sites on the other are occupied at equilibrium, for simple one-to-one binding. Lower therefore signals higher affinity. For orientation: koff means a measure of how fast the partners let go of each other. The term kon denotes the rate constant with which the complex forms. A higher kon goes with fast association.
